Experimental data reported in patent US20230391832A1 (ISOLERE BIO, published 2023).
Numbering of substitutions follows the chain as printed.

B1: SEQ ID NO 10 (designed binder)
chain: MCDIPPFVCWWPSWCVWATWVCDGAPDCIDNYDEWICTPTP
notes: N-terminal Met printed as (M)
B2: SEQ ID NO 26 (designed binder)
chain: MATGVRAVPGNENSLEIEELARFAVDEHNKKENALLEFVRVVKAKEQVVAGTMYYLTLEAKDGGKKKLYEAKVWVKIRAIVYWSGNFKELQEFKPVGDA
notes: N-terminal Met printed as (M)
B3: SEQ ID NO 33 (designed binder)
chain: B2 chain with I77V, A79R, I80D, V81I, Y82V, W83V, S84P, G85R
notes: N-terminal Met printed as (M)
B4: SEQ ID NO 40 (designed binder)
chain: B2 chain with I77V, R78V, A79G, I80K, V81W, Y82W, W83V, S84N, G85I
notes: N-terminal Met printed as (M)
B5: SEQ ID NO 31 (designed binder)
chain: B2 chain with R78S, A79R, I80P, V81G, Y82W, S84P, G85W
notes: N-terminal Met printed as (M)
B6: SEQ ID NO 38 (designed binder)
chain: B2 chain with I77S, R78A, A79S, I80Y, V81Y, Y82V, W83Y, G85Y
notes: N-terminal Met printed as (M)
B7: SEQ ID NO 41 (designed binder)
chain: B2 chain with I77A, A79Y, I80V, W83Y, S84R, G85W
notes: N-terminal Met printed as (M)
B8: SEQ ID NO 27 (designed binder)
chain: B2 chain with V42M, I77G, R78V, A79I, I80Y, V81A, W83S, S84Y, G85S
notes: N-terminal Met printed as (M)
B9: SEQ ID NO 43 (designed binder)
chain: B2 chain with I77V, A79Y, I80P, V81P, Y82N, W83I, S84W, G85K
notes: N-terminal Met printed as (M)
B10: SEQ ID NO 39 (designed binder)
chain: B2 chain with I77W, I80V, V81R, Y82W, S84W
notes: N-terminal Met printed as (M)
B11: SEQ ID NO 47 (designed binder)
chain: B2 chain with I77V, R78N, A79I, I80Y, Y82I, W83S, S84P, G85R
notes: N-terminal Met printed as (M)
B12: SEQ ID NO 52 (designed binder)
chain: B2 chain with V8M, I77V, R78W, A79W, I80V, Y82S, W83D, S84P, G85A
notes: N-terminal Met printed as (M)
B13: SEQ ID NO 49 (designed binder)
chain: B2 chain with I77S, R78V, V81R, Y82N, S84Y, G85W
notes: N-terminal Met printed as (M)
B14: SEQ ID NO 51 (designed binder)
chain: B2 chain with I77V, A79Y, I80W, Y82D, W83R, S84R, G85K
notes: N-terminal Met printed as (M)
B15: SEQ ID NO 37 (designed binder)
chain: B2 chain with P9S, I77S, R78P, A79V, I80Y, V81W, Y82P, W83K, S84G
notes: N-terminal Met printed as (M)
B16: SEQ ID NO 36 (designed binder)
chain: B2 chain with G10S, I77A, R78I, A79K, I80Y, Y82R, W83Y, S84K, G85A
notes: N-terminal Met printed as (M)
B17: SEQ ID NO 34 (designed binder)
chain: B2 chain with G51C, G63D, I77S, A79V, I80R, Y82I, W83R, S84W
notes: N-terminal Met printed as (M)
B18: SEQ ID NO 28 (designed binder)
chain: B2 chain with I77A, R78G, A79Y, V81G, Y82R, W83S, S84K, G85A
notes: N-terminal Met printed as (M)
B19: SEQ ID NO 48 (designed binder)
chain: B2 chain with R40C, I77V, R78A, A79P, V81Y, Y82S, W83V, S84D, G85S
notes: N-terminal Met printed as (M)
B20: SEQ ID NO 42 (designed binder)
chain: B2 chain with I77G, A79Y, I80S, S84Y, G85V
notes: N-terminal Met printed as (M)
B21: SEQ ID NO 45 (designed binder)
chain: B2 chain with I77V, R78A, I80Y, V81P, Y82R, W83A, G85I
notes: N-terminal Met printed as (M)
B22: SEQ ID NO 29 (designed binder)
chain: B2 chain with I77A, R78A, A79G, I80Y, V81Y, Y82V, W83Y, S84A, G85P
notes: N-terminal Met printed as (M)
B23: SEQ ID NO 46 (designed binder)
chain: B2 chain with R78G, A79I, I80P, V81I, Y82R, W83I, S84W, G85S
notes: N-terminal Met printed as (M)
B24: SEQ ID NO 35 (designed binder)
chain: B2 chain with I77V, A79D, Y82S, W83I, S84R
notes: N-terminal Met printed as (M)
B25: SEQ ID NO 50 (designed binder)
chain: B2 chain with I77V, A79R, I80Y, V81S, Y82P, W83P, S84N, G85R
notes: N-terminal Met printed as (M)
B26: SEQ ID NO 32 (designed binder)
chain: B2 chain with I77S, A79S, I80V, V81R, Y82I, S84Y, G85S
notes: N-terminal Met printed as (M)
B27: SEQ ID NO 30 (designed binder)
chain: MATGVRAVSGNENGLEIEELARFAVDEHNKKENALLEFVRVVKAKEQVVAGTMYYLTLEAKDGGKKKLYEAKVWVKRIVRVAVWVNFRELQEFKPVGDA
notes: N-terminal Met printed as (M)
B28: SEQ ID NO 11 (designed binder)
chain: MCWVKIFRCNIVGVCIVNTWVCDGRVDCSDPPDEGWCTPTP
notes: N-terminal Met printed as (M)
B29: SEQ ID NO 44 (designed binder)
chain: MATGVRAVPGNENSLEIEELARFAVDEHNKKENALLEFVRMVKAKEQYISVDKWVATMYYLTLEAKDGGKKKLYEAKVWVKYGGSCWRGGNFKELQEFKPVGDA
notes: N-terminal Met printed as (M)
B30: SEQ ID NO 53 (designed binder)
chain: MATGVRAVPGNENSLEIEELARFAVDEHNKKENALLEFVRVVKAKEQRARYYYVNRTMYYLTLEAKDGGKKKLYEAKVWVKWVIRGDSPANFKELQEFKLVGDA
notes: N-terminal Met printed as (M)
B31: SEQ ID NO 12 (designed binder)
chain: MCAIDNFPCNWYIDCIGATWVCDGIIDCIDIADEYDCTPTP
notes: N-terminal Met printed as (M)

Biological target: T1, AAV9 capsids (adeno-associated virus serotype 9, Assembled icosahedral capsid of about 60 subunits (VP1, VP2, VP3 from one gene). One VP1 chain is given. Example 1's screen does not say whether the capsids were full or empty.)
T1 construct: Assembled virus capsid
Assay: ELISA, AAV9 capsids coated on plate, His-tagged variant in E. coli lysate, anti-His-HRP luminescence; signal relative to HSA (A) or to PKD2 control (B)

| Binder | fold specificity for AAV9 capsids [fold] |
| --- | --- |
| B1 | > 3 |
| B2 | > 3 |
| B3 | > 3 |
| B4 | > 3 |
| B5 | > 3 |
| B6 | > 3 |
| B7 | > 3 |
| B8 | > 3 |
| B9 | > 3 |
| B10 | > 3 |
| B11 | > 3 |
| B12 | > 3 |
| B13 | > 3 |
| B14 | > 3 |
| B15 | > 3 |
| B16 | > 3 |

| Binder | fold specificity for AAV9 capsids [fold] |
| --- | --- |
| B17 | > 3 |
| B18 | > 3 |
| B19 | > 3 |
| B20 | > 3 |
| B21 | > 3 |
| B22 | > 3 |
| B23 | > 3 |
| B24 | > 3 |
| B25 | > 3 |
| B26 | > 3 |
| B27 | > 3 |
| B28 | > 3 |
| B29 | > 3 |
| B30 | > 3 |
| B31 | > 3 |
